Experimental findings from US5821048, “Methods, kits, and compositions for diagnosing papillomavirus infection” (President and Fellows of Harvard College, dated 1998) are described below.

Assay [1] concerns the target T1, full length BPV-1 E2 protein, in vitro translated (bovine papillomavirus-1, 35S-methionine-labelled).
T1 chain: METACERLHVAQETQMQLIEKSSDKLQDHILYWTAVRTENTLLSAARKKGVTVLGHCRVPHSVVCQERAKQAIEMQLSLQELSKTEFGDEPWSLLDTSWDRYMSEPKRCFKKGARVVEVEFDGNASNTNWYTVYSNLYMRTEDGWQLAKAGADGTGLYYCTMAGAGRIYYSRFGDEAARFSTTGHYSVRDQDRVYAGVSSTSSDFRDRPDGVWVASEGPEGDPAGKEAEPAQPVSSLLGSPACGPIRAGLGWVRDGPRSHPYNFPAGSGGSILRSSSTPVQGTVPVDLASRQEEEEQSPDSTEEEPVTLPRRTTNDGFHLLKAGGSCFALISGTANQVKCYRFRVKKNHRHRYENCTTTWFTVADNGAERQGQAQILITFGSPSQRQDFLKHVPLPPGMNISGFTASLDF
Nature of the assay: GST pull-down of in vitro translated 35S-E2.

The target in assay [2] is T2, BPV-1 E2 protein bearing a deletion of the amino terminal 52 amino acids (bovine papillomavirus-1, 35S-methionine-labelled).
T2 chain: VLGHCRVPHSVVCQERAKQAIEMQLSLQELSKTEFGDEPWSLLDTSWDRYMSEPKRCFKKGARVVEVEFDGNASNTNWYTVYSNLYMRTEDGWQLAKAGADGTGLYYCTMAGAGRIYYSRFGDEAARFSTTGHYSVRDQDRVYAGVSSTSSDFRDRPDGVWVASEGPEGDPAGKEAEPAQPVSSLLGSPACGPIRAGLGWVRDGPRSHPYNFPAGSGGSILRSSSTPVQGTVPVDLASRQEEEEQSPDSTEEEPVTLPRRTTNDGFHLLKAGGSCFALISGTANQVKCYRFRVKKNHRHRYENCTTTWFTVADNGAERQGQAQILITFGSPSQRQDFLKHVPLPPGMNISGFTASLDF
Nature of the assay: GST pull-down of in vitro translated 35S-E2 forms.

The target in assay [3] is T3, BPV-1 E2 (aa161-410) (bovine papillomavirus-1, 35S-methionine-labelled).
T3 chain: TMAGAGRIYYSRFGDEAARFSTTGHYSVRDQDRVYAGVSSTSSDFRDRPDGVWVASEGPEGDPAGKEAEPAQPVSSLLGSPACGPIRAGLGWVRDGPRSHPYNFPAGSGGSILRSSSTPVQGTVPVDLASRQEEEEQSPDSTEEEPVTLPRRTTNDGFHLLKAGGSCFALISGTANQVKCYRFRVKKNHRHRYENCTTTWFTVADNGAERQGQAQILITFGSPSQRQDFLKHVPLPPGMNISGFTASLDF
Nature of the assay: GST pull-down of in vitro translated 35S-E2 forms.

B1: GST fusion protein containing BPV-1 E1 amino acids 1-128 (other)
chain: MANDKGSNWDSGLGCSYLLTEAECESDKENEEPGAGVELSVESDRYDSQDEDFVDNASVFQGNHLEVFQALEKKAGEEQILNLKRKVLGSSQNSSGSEASETPVKRRKSGAKRRLFAENEANRVLTPL
Turning to B1, the binding result in assay [1] is “no binding”.

B2: GST fusion protein containing amino acids 200-424 of SEQ ID NO:1 (BPV-1 E1) (other)
chain: AEVFFEASFELLKKQCSFLQMQKRSHEGGTCAVYLICFNTAKSRETVRNLMANTLNVREECLMLQPAKIRGLSAALFWFKSSLSPATLKHGALPEWIRAQTTLNESLQTEKFDFGTMVQWAYDHKYAEESKIAYEYALAAGSDSNARAFLATNSQAKHVKDCATMVRHYLRAETQALSMPAYIKARCKLATGEGSWKSILTFFNYQNIELITFINALKLWLKGIP
As to B2, the binding result in assay [1] was “no binding”.

B3: BPV-1 E1 (amino acids 1-222)-GST fusion protein (other)
chain: MANDKGSNWDSGLGCSYLLTEAECESDKENEEPGAGVELSVESDRYDSQDEDFVDNASVFQGNHLEVFQALEKKAGEEQILNLKRKVLGSSQNSSGSEASETPVKRRKSGAKRRLFAENEANRVLTPLQVQGEGEGRQELNEEQAISHLHLQLVKSKNATVFKLGLFKSLFLCSFHDITRLFKNDKTTNQQWVLAVFGLAEVFFEASFELLKKQCSFLQMQK
In the case of B3, the binding result in assay [2] and in assay [3] was “no binding” throughout.
